{"source": "paper PMC9399999", "about": "(2022)", "binders": {"B1": {"name": "S304 antibody (IgG1) (antibody, V domains shown)", "VH": "EVQLVESGGGLVQPGGSLRLSCAASGFTFSSYDMHWVRQTTGKGLEWVSTIGTAGDTYYPDSVKGRFTISREDAKNSLYLQMNSLRAGDTAVYYCARGDSSGYYYYFDYWGQGTLLTVSS", "VL": "DIQMTQSPSSLSAAVGDRVTITCRASQSIGSYLNWYQQKPGKAPKLLIYAASSLQSGVPSRFSGSGSGTDFTLTISSLQPEDFAIYYCQQSYVSPTYTFGPGTKVDIK"}}, "target": "prototypic SARS-CoV-2 RBD (residues 319-541) (SARS-CoV-2 (prototype), UniProt P0DTC2 319-541)", "experiment": "SPR"}
{"binder": "B1", "values": [{"measurement": "koff", "result": 0.00664, "unit": "s⁻¹"}]}
